The experiment has as its target T1, IFT54^CH (IFT54 residues 1-137) (human, UniProt Q8TDR0 1-137).
T1 construct: IFT54 (IFT-B subunit), human, CH domain, residues 1-137; also called IFT54 CH domain; source: baculovirus system, purified (IgG Sepharose, released by TEV protease); not shown: ZZ, N-terminal, cleaved
T1 sequence (looked up): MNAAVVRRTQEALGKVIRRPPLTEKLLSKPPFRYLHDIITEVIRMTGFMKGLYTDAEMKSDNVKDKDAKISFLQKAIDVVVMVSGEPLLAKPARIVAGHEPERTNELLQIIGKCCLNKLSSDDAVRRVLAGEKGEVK
The experiment is described as follows: pull-down; ZZ-SNAP-GST-WDR60^355-449 immobilized on IgG Sepharose 6; purified IFT54^CH at 4.6 µM flowed over in wash buffer (30 mM HEPES pH 7.4, 150 mM KCl, 1 mM EGTA, 1 mM DTT, 10% glycerol); TEV elution, SDS-PAGE, Sypro Red. The note with it: both partners purified.

B1: ZZ-SNAP-GST-WDR60^355-449 (domain or fragment, human, UniProt Q8WVS4 355-449, looked up)
chain: IEKEETDLENARADAYTASCEDDFEDYEDDFEVCDGDDDESSNEPESREKLEELPLAQKKEIQEIQRAINAENERIGELSLKLFQKRGRTEFEKE
notes: WDR60/DYNC2I1, human, residues 355-449 of the N-terminal extension; released by TEV protease afterwards for SDS-PAGE; source: baculovirus system, immobilized on IgG Sepharose 6 resin and washed; not shown: ZZ, N-terminal, kept; SNAP, N-terminal, kept; GST, N-terminal, kept
Turning to B1, the binding result was “binds”.
